In the supplement of paper PMC12764529:
± gives the half width of the 95% confidence interval.

Test: folding stability dG unfold (combined trypsin and chymotrypsin); higher = more stable
Procedure: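 Folding stability of de novo designed mini-proteins (<80 aa, no Cys; designed by TrROS, TrMRF, ProteinMPNN and the joint model) was measured by cDNA display proteolysis with trypsin and chymotrypsin. Each protease was used at 11 concentrations in a threefold dilution series plus a no-protease condition. K50 was inferred by Bayesian fitting of sequencing counts, and dG unfold was derived against a sequence-predicted unfolded-state K50 (Tsuboyama et al. method). Sequences shown include variable-length N-terminal GS-type padding (SAGGSAGG...) inside a display construct carrying a PA tag. Rows were kept only if the AF2 dimer inter-PAE was >15, to exclude likely homo-oligomers.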

Sequence | folding stability dG unfold [kcal/mol]
SAGGSAGGSAGITITQNPDGPVRIMWKHPNGKPVNEGDIKPDEAEKFADKNGMRPVSIEPSAGGSAGGSAGG [r11_521_TrROS] | < -1
SAGGSAGGSPIRRALRYVREQFPPGQPYRVRARNPGNGKEREIEVPWNDPEELDNTKDIEVEPYSAGGSAGG [r6_402_TrROS] | < -1
SAGGSAGGSAGGSGLKELREEAAKGKKFIVRTTVPLKEYEFDLKDLDKFEDHDIIVEPRSAGGSAGGSAGGS [r4_157_TrMRF] | < -1
SAGGSAGGSGGLGGEPISVRTELVTVPVELEEEVLLPGGVPLPRRRTVERVVAVTTRVPPGAALSAGGSAGG [r6_526_JUSTAS] | < -1
SAGGSAGGSAGGSMPTATLVEKEKDPVEDIITYKINTPPDKTEIIKYSPENPISESDIISAGGSAGGSAGGS [r4_481_JUSTAS] | < -1
SAGGDIEVEPTDNMPQVEIRDPEGKERKIVMPPNPNGQYNIQVHNPDDGKKKTFPVRSVDDALEWLKSAGGS [r8_230_TrROS] | < -1
SAGGSAGGSAGAAEFELSGTVRIGDVPVKVTPRLYVPEDGGYRAEPRVELYFREDTPGYRSAGGSAGGSAGG [r11_121_TrMRF] | < -1
SAGGSAGGSAGKIEVETNPENNYMRVKITNPGNGKKIKIPVPNGNPSDARDKAKELILEFSAGGSAGGSAGG [r17_386_TrROS] | < -1
SAGGSAGGSAGKTISLKELMKNGNPEKALEFLKKIKEANPKPKIKLIEIDENFDAKYDINSAGGSAGGSAGG [r11_365_TrMRF] | < -1
SAGGIRIRPGQKIEDIEFEVEKNPDGEPPIKVKIRWPDKGKPHTYTMTPGQDVGNFADKNGWPIEVVSAGGS [r16_676_TrROS] | < -1
SAGGSAGGSAGGSSTVLETEVTPTSEPRLLTKTLIEEFPPDNPEKPVLSVKETVLPVLLSAGGSAGGSAGGS [r4_265_JUSTAS] | < -1
SAGGMIIDDPDALLDAIKENPNTPLVFLVPTDPATGTVDPAVIDAVVEPGFPVERDPDGYVRFIFPKSAGGS [r16_335_TrMRF] | < -1
SAGGSAGGSAGAPRVRSVTPVGEETFFLPEDRVVRVTLWAAEGEGPPRLFRRVEVLPLDESAGGSAGGSAGG [r11_129_TrMRF] | < -1
SAGGSAGEKTLKIVIEGKDKEKVVKEAKPLLEKLFGAKEIKVKVEPLPDGGYKVPIEITVPPGAAKSAGGSA [r15_173_TrMRF] | < -1
SAGGSAGGSAGGKVIHIPAGDAKTFIKEALEKDKDQPIVIHMYNPDGKEYSTMEVKIKPSAGGSAGGSAGGS [r10_741_TrROS] | < -1
SAGGSAGGSGSGSVTVPVTSTDPVTGKPSVSTVTVSLDVVPPPPVPATVFFDPVRGRRSTDLGGSAGGSAGG [r6_926_JUSTAS] | < -1
SAGGSAGGMEKADKLAAALVEKGIPFHVKKVEVFEVRIPPADKELGEVVLPAVKIGLDDKVLLASAGGSAGG [r6_686_TrMRF] | < -1
SAGGSAGGSAGGSPVYTLERTLPDGRPVRIEISGDEATITLESPEGGERTEKVSRSEILESAGGSAGGSAGG [r7_653_JUSTAS] | < -1
SAGGSAGGSYPFRIKIVNPNGKKIIPIPYQFDPEDGKLEPFTEDQLDEIAKQLGPNFKKIEIYSAGGSAGGS [r12_514_TrROS] | < -1

Sequence | folding stability dG unfold [kcal/mol]
SAGFDFPEDFTPIARDGVNSLWQGDGPVLLALRGPEGGSAVLPFKPGNPEEIFPLIEALAAGGVVDPSFSAG [r14_12_TrMRF] | < -1
SRFRISVQHDGKPIDRAEVQDAIHDLMQESGRPITFEELADELAERPNYSVSIERWNPPGKPKGTRTIRVSA [r9_1045_TrROS] | < -1
SAGGSAGGSAPKPIERVEVGSFTLPPGRRVFPVRARIRGTGEVVVVATDGAPVEEVLKAVEASAGGSAGGSA [r18_345_TrMRF] | < -1
SAGGSAGGSDKEREVPIEVRYPNQPLKIPVEFKDEEDAPHKARSAIKPLMKKLPMVKIPKPDDSAGGSAGGS [r12_230_TrROS] | < -1
SAGGSAGGSAGGSLNISVSSEPLPGDLLVEKGEFPSPKTLTTLVEPGTGVVTTTTEAASSAGGSAGGSAGGS [r10_237_JUSTAS] | < -1
SASPLVPVETEVLEEETLPDGTLRILTRRTVGDTTILDVRDRGPGGEILRESSSVDTSSNTTTRDVSVLSAG [r14_189_JUSTAS] | < -1
SAGGSAGGSSYTLVRVVEHPDSVVEYYKAPDGTVIVKRNDEEIEIPPSVPASSLPEDADVVLESAGGSAGGS [r12_594_JUSTAS] | < -1
SAGGSAKPYIVIKGEYENPGKKHDMDIQIPPEDLDNPERARELAEEIKDEMRQQGAPVKDVEIEPVSAGGSA [r15_781_TrROS] | < -1
SAGGSAGGSSHMEVEKAAKELSSEVGFEKSSNGPDSVSFTFDPAKPELVRALAEKFGIDLKVESAGGSAGGS [r12_74_JUSTAS] | < -1
SAGGSAGGGNTPRPRPRSVVTKLNVSPDTVPPEELKAKHPDIEVSYSPNSLTARVPVNGELVESSAGGSAGG [r6_739_JUSTAS] | < -1
SAALGPEKAEELAEALARELAEKAGVEKVEAKVEPLPDERWVAEIYFPPVGKKARVVFEKDKPRLVEVGSAG [r14_925_TrMRF] | < -1
SAGGNLKIEMGDNPHEIPVDPNQVDTPEEAIEEVADQIRNRFPQFGPFRVRVETEGGKEIAMINIKPKSAGG [r13_257_TrROS] | < -1
SAGMTTTETIEFPDSTTATVTSVEEGPTPNGTPVTTRTVTVTTYTPLRDADGKLLGEVPQTSTSTLTVASAG [r5_476_JUSTAS] | < -1
SAGGSAGGSANFDINIEPHPDKDYLVITVTIPPGMPPGQKVRTWVIDPPDGKILEPEPIKIPDSAGGSAGGS [r12_564_TrROS] | < -1
SAGGSAGGSAMDPDDQLPTIEEIAKKFGMDATIEPRRNPNGMPYRTATVQNNGGPVGEISIPSAGGSAGGSA [r18_369_TrROS] | < -1
SAGGSMKPSELANLIAEKLREKVDPNKTVRIVLEVGEGPVEFEIPSGKKIDIPENVPIKGYKVEVGSAGGSA [r2_391_TrMRF] | < -1
SAGGSAGGSSWDEVREIAREARKEGFPMVSIRYDDKNTHQINFEDGPIEPLPNPDNVKIEIMRSAGGSAGGS [r20_44_TrROS] | < -1
SAGGSAGGSAGGMALEPKTVTSTLTVFFPDTGKTYPLTETVFIPTKFNLPLPPFPPETLSAGGSAGGSAGGS [r10_1026_JUSTAS] | < -1
SAGGSAGGSAGLLPPGARVRLTLRAPGEPEELEFTIPASVPSVEELIERHPPVLAVEVVGSAGGSAGGSAGG [r11_157_JUSTAS] | < -1

Sequence | folding stability dG unfold [kcal/mol]
SAGGSAGGSAGGTIEGLPKEQLRDIFKDHGMPPDEFPPGQPVQFNIPNKNPIKVRVTDLSAGGSAGGSAGGS [r10_623_TrROS] | < -1
SAGGEDIIKELLDQLPPGDKNAVLEFDPPDGKLEPKEPSPGGYMFEPKNPENGEKWTFVIRDDKIEPVSAGG [r13_803_TrROS] | < -1
SAGGSAGGSAMTLLSEKEVPGTDLTIKYVEEKLPGERVIRTLTIKKNSVVEEKEFPVGELPSAGGSAGGSAG [r3_48_JUSTAS] | < -1
SAGGMPPGQKKTITLEMNEPGYFRIHNPNGGQEREFPINPDQSPSEFLDWAEDFAEDYGYPVEIEWHSAGGS [r16_446_TrROS] | < -1
SAGGSAGGDYKLEPDDIEPMPDGWYQVEIEIEQRDPDGEPETRDIPVWMPPGQTAKDMAKWLIKSAGGSAGG [r6_329_TrROS] | < -1
SAGGSAGGSTAGEAESEEISVEPLPDGPYLVTRSVVRTLPDGSSEVTETVPSIATDPAEIAEASAGGSAGGS [r12_386_JUSTAS] | < -1
SAGGSAGGSPIPVPLVIFFPDSETTEIVPATPELFEALAAELAALGPVVRRGPERTMTITVPRSAGGSAGGS [r12_292_JUSTAS] | < -1
SAGGSAGGSAGGGMKKITISDPVKPGAVITFPLTGETITVPANSSVTITLTEPLPGTYDLSAGGSAGGSAGG [r7_234_JUSTAS] | < -1
SAGGSAGGSAGGKSPLEKLRELAKKNPNVTVYVEKTGKEVKVPSIEELLEKGYKIVKIEKSAGGSAGGSAGG [r7_504_TrROS_Hall] | < -1
SAGGSAGGMDEKLYITTAEVTVKEDGAPVPSTMTFKSKEEIEKYVKETFPPENVELKITTYPELSAGGSAGG [r6_114_JUSTAS] | < -1
SAGGSAGGSAGGMKITVKTSYDPSRPVFYEEVYPPGGEPISRKVIEIPPAEPKLIEELLSAGGSAGGSAGGS [r10_717_JUSTAS] | < -1
SAGGSAGGSSAITHPDSDAGVAPVATTRSPNATPETVLRDDSPDPRRWILTASGERRVEPLLESAGGSAGGS [r12_205_JUSTAS] | < -1
SAGGMVVITTDDPDDLERLAEAVEELKRALAEAGATEPGVKVDVVIEKRPTPDGTLRYVAPVFVGLPSAGGS [r16_591_TrMRF] | < -1
SAGGSAGGSAGGGSPNVVVEKKLTVNLPKDVKLDFPPEYEVTVTKGKNTYKITEKIIVNKSAGGSAGGSAGG [r7_584_JUSTAS] | < -1
SAGMQTKTLAETKENGKITVTTLTTTESGEETTVTETIEVGPVPIPPLTVEVRLRPDGRLEFEYHIPLSAGG [r19_172_JUSTAS] | -0.861 ± 0.51
SAGGSAGGPKPEIDIEPYPEEGQMYVKIRLPGNGRPITIPVEGPMTPNDPEKAIEEAKDALEKFSAGGSAGG [r6_331_TrROS] | < -1
GMILFKVKLTDPKGKKEIAEVDIPIPVPEEVLPAMPEELKEKLREEAEKAAEEIREKLGNVLVEPEFTLLES [r1_115_JUSTAS] | < -1
SAGGSAGGKPIVFKGKHDGKEMIFPIELNPENGQIKITPMNGKELRIPPNKPPKIVEVDPNDFESAGGSAGG [r6_174_TrROS] | < -1
SAGGSAGGSAREITIMVPPDDPNLTIEEAKDLLQPWGIKKVEIEPHPDGYYIVEIRVPPGLSAGGSAGGSAG [r3_335_TrROS] | < -1
